Here are results for 94 variants from the supplement of paper PMC10567573.

Sequences and labels used below:
B1: FEM1B (parent)
chain: TLAALLLNRSESDIRYLLGYVSQQ
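Further: lentivirally expressed fusions sorted by FACS into six bins by GFP to DsRed ratio, PSI derived from sequencing read proportions per bin multiplied by bin number.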

Variants of B1 are the subject of this data set. As to the kind of experiment: protein stability index of a GFP-peptide fusion (GPS, HEK-293T) (PSI 1-6); higher = more stable. Conditions: c terminus: a fixed tail appended.
NLAALLLNRSESDIRYLLGYVSQQ [T1N]: the protein stability index came to 2.8.
Under SLAALLLNRSESDIRYLLGYVSQQ [T1S] stands 2.98; under QLAALLLNRSESDIRYLLGYVSQQ [T1Q], 1.85; under PLAALLLNRSESDIRYLLGYVSQQ [T1P], 2.1.
In the case of YLAALLLNRSESDIRYLLGYVSQQ [T1Y] it was 3.91; in that of WLAALLLNRSESDIRYLLGYVSQQ [T1W], 1.93.
Regarding TLAALLNNRSESDIRYLLGYVSQQ [L7N], the protein stability index is 1.95.
In the case of TLAALLANRSESDIRYLLGYVSQQ [L7A] it was 2.03; in that of TLAALLKNRSESDIRYLLGYVSQQ [L7K], 2.38.
In the case of TLAALLGNRSESDIRYLLGYVSQQ [L7G] it was 1.79; in that of TLAALLPNRSESDIRYLLGYVSQQ [L7P], 1.3.
Under TLAALLYNRSESDIRYLLGYVSQQ [L7Y] stands 1.28; under TLAALLWNRSESDIRYLLGYVSQQ [L7W], 2.28; under TLAALLENRSESDIRYLLGYVSQQ [L7E], 1.42.
TLAALLHNRSESDIRYLLGYVSQQ [L7H]: the protein stability index worked out at 1.7.
In the case of TLAALLRNRSESDIRYLLGYVSQQ [L7R] it was 1.78; in that of TLAALLDNRSESDIRYLLGYVSQQ [L7D], 1.97.
In the case of TLAALLQNRSESDIRYLLGYVSQQ [L7Q], the protein stability index amounted to 1.79.
In the case of TLAALLFNRSESDIRYLLGYVSQQ [L7F] it was 2.56.
Under TLAALLMNRSESDIRYLLGYVSQQ [L7M] stands 2.58; under TLAALLCNRSESDIRYLLGYVSQQ [L7C], 2.03; under TLAALLSNRSESDIRYLLGYVSQQ [L7S], 1.31.
Under TLAALLLKRSESDIRYLLGYVSQQ [N8K] stands 4.32.
On to TLAALLLRRSESDIRYLLGYVSQQ [N8R], for which the protein stability index is 3.
In the case of TLAALLLFRSESDIRYLLGYVSQQ [N8F] it was 2.45; in that of TLAALLLSRSESDIRYLLGYVSQQ [N8S], 2.67; in that of TLAALLLIRSESDIRYLLGYVSQQ [N8I], 1.53.
In the case of TLAALLLCRSESDIRYLLGYVSQQ [N8C] it was 4.47.
Under TLAALLLMRSESDIRYLLGYVSQQ [N8M] stands 4.03.
As for TLAALLLDRSESDIRYLLGYVSQQ [N8D], the protein stability index came to 3.63.
For the variant TLAALLLQRSESDIRYLLGYVSQQ [N8Q], the protein stability index worked out at 3.3.
In the case of TLAALLLWRSESDIRYLLGYVSQQ [N8W] it was 4.75.
Under TLAALLLHRSESDIRYLLGYVSQQ [N8H] stands 2.92; under TLAALLLGRSESDIRYLLGYVSQQ [N8G], 2.04.
With TLAALLLTRSESDIRYLLGYVSQQ [N8T], the protein stability index was 2.38.
Under TLAALLLARSESDIRYLLGYVSQQ [N8A] stands 2.48; under TLAALLLNRSASDIRYLLGYVSQQ [E11A], 2.44.
Under TLAALLLNRSDSDIRYLLGYVSQQ [E11D] stands 2.49; under TLAALLLNRSQSDIRYLLGYVSQQ [E11Q], 1.99.
In the case of TLAALLLNRSTSDIRYLLGYVSQQ [E11T] it was 2.44; in that of TLAALLLNRSFSDIRYLLGYVSQQ [E11F], 3.19; in that of TLAALLLNRSNSDIRYLLGYVSQQ [E11N], 3.2.
For the variant TLAALLLNRSRSDIRYLLGYVSQQ [E11R], the protein stability index stood at 3.13.
Regarding TLAALLLNRSISDIRYLLGYVSQQ [E11I], the protein stability index was 4.17.
In the case of TLAALLLNRSSSDIRYLLGYVSQQ [E11S] it was 3.2; in that of TLAALLLNRSKSDIRYLLGYVSQQ [E11K], 2.83; in that of TLAALLLNRSPSDIRYLLGYVSQQ [E11P], 2.08.
Under TLAALLLNRSLSDIRYLLGYVSQQ [E11L] stands 3.34; under TLAALLLNRSGSDIRYLLGYVSQQ [E11G], 3.03.
In the case of TLAALLLNRSWSDIRYLLGYVSQQ [E11W] it was 2.68.
As for TLAALLLNRSHSDIRYLLGYVSQQ [E11H], the protein stability index was 3.15.
Under TLAALLLNRSCSDIRYLLGYVSQQ [E11C] stands 3.04; under TLAALLLNRSMSDIRYLLGYVSQQ [E11M], 3.08; under TLAALLLNRSYSDIRYLLGYVSQQ [E11Y], 3.35.
In the case of TLAALLLNRSVSDIRYLLGYVSQQ [E11V] it was 2.96; in that of TLMALLLNRSESDIRYLLGYVSQQ [A3M], 2.35.
With TLPALLLNRSESDIRYLLGYVSQQ [A3P], the protein stability index is 2.08.
In the case of TLTALLLNRSESDIRYLLGYVSQQ [A3T] it was 2.18; in that of TLIALLLNRSESDIRYLLGYVSQQ [A3I], 2.65; in that of TLFALLLNRSESDIRYLLGYVSQQ [A3F], 3.58.
Under TLWALLLNRSESDIRYLLGYVSQQ [A3W] stands 2.38; under TLLALLLNRSESDIRYLLGYVSQQ [A3L], 2.64.
Under TLNALLLNRSESDIRYLLGYVSQQ [A3N] stands 1.7.
TLKALLLNRSESDIRYLLGYVSQQ [A3K]: the protein stability index was found to be 1.18.
TLRALLLNRSESDIRYLLGYVSQQ [A3R]: the protein stability index worked out at 2.25.
Under TLVALLLNRSESDIRYLLGYVSQQ [A3V] stands 3.73; under TLGALLLNRSESDIRYLLGYVSQQ [A3G], 2.15.
Under TLEALLLNRSESDIRYLLGYVSQQ [A3E] stands 2.92.
For TLCALLLNRSESDIRYLLGYVSQQ [A3C], the protein stability index worked out at 2.17.
In the case of TLHALLLNRSESDIRYLLGYVSQQ [A3H] it was 2.12; in that of TLQALLLNRSESDIRYLLGYVSQQ [A3Q], 2.31; in that of TLDALLLNRSESDIRYLLGYVSQQ [A3D], 2.
In the case of TLAALSLNRSESDIRYLLGYVSQQ [L6S] it was 1.82.
In the case of TLAALHLNRSESDIRYLLGYVSQQ [L6H] it was 1.85; in that of TLAALALNRSESDIRYLLGYVSQQ [L6A], 2.12.
For TLAALFLNRSESDIRYLLGYVSQQ [L6F], the protein stability index was 2.65.
In the case of TLAALMLNRSESDIRYLLGYVSQQ [L6M] it was 2.56.
Under TLAALGLNRSESDIRYLLGYVSQQ [L6G] stands 1.97; under TLAALELNRSESDIRYLLGYVSQQ [L6E], 1.7; under TLAALQLNRSESDIRYLLGYVSQQ [L6Q], 1.38.
Under TLAALDLNRSESDIRYLLGYVSQQ [L6D] stands 2.5; under TLAALVLNRSESDIRYLLGYVSQQ [L6V], 2.22; under TLAALKLNRSESDIRYLLGYVSQQ [L6K], 2.37.
Regarding TLAALNLNRSESDIRYLLGYVSQQ [L6N], the protein stability index came out at 1.8.
Under TLAALTLNRSESDIRYLLGYVSQQ [L6T] stands 1.76; under TLAALILNRSESDIRYLLGYVSQQ [L6I], 2.88; under TLAALPLNRSESDIRYLLGYVSQQ [L6P], 2.21.
In the case of TLAALRLNRSESDIRYLLGYVSQQ [L6R] it was 1.76; in that of TLAALCLNRSESDIRYLLGYVSQQ [L6C], 1.21; in that of TLAALLLNTSESDIRYLLGYVSQQ [R9T], 2.94.
Under TLAALLLNDSESDIRYLLGYVSQQ [R9D] stands 2.9; under TLAALLLNPSESDIRYLLGYVSQQ [R9P], 1.92; under TLAALLLNISESDIRYLLGYVSQQ [R9I], 3.29.
TLAALLLNESESDIRYLLGYVSQQ [R9E]: the protein stability index was 1.98.
